In the Immune Epitope Database (IEDB):
pIC50, pKd: −log10 of the molar value.

Columns and labels:
HLA-A*03:01 [1] = test: IEDB peptide-MHC binding, purified MHC/direct/fluorescence; filed as Kd, often an IC50 or EC50 that approximates it; ≥ and ≤ were set here for values at or beyond the usual limits of such assays; details: source organism: Mammarenavirus lassaense
HLA-A*11:01 = test: as above; details: source organism: Mammarenavirus lassaense
HLA-B*15:42 = test: IEDB peptide-MHC binding, purified MHC/competitive/fluorescence; filed as Kd, often an IC50 or EC50 that approximates it; ≥ and ≤ were set here for values at or beyond the usual limits of such assays
HLA-B*83:01 = test: as above
HLA-A*31:01 = test: as above
HLA-B*45:06 = test: as above
HLA-B*08:01 [2] = test: IEDB peptide-MHC binding, purified MHC/competitive/fluorescence; ≥ and ≤ were set here for values at or beyond the usual limits of such assays
HLA-A*02:01 = test: as above
HLA-B*07:02 [3] = test: as above
HLA-A*24:02 = test: as above
HLA-A*02:19 = test: IEDB peptide-MHC binding, purified MHC/direct/fluorescence; filed as Kd, often an IC50 or EC50 that approximates it; ≥ and ≤ were set here for values at or beyond the usual limits of such assays
HLA-A*02:11 = test: as above
HLA-A*02:12 = test: as above
HLA-A*02:17 = test: IEDB peptide-MHC binding, purified MHC/competitive/radioactivity; filed as Kd, often an IC50 or EC50 that approximates it; ≥ and ≤ were set here for values at or beyond the usual limits of such assays; details: source organism: Dengue virus 1 Singapore/S275/1990
HLA-A*02:03 [4] = test: as above; details: source organism: Dengue virus 1 Brazil/97-11/1997
HLA-B*15:01 [5] = test: IEDB peptide-MHC binding, purified MHC/direct/fluorescence; filed as Kd, often an IC50 or EC50 that approximates it; ≥ and ≤ were set here for values at or beyond the usual limits of such assays; details: source organism: Campylobacter jejuni
HLA-A*69:01 [6] = test: as above
HLA-A*02:03 [7] = test: as above
HLA-B*07:02 [8] = test: as above; details: source organism: Mycobacterium tuberculosis variant bovis
HLA-B*51:01 = test: IEDB peptide-MHC binding, purified MHC/competitive/fluorescence; filed as Kd, often an IC50 or EC50 that approximates it; ≥ and ≤ were set here for values at or beyond the usual limits of such assays
HLA-B*35:01 = test: as above; details: source organism: Mycobacterium tuberculosis H37Rv
HLA-B*15:01 [9] = test: IEDB peptide-MHC binding, purified MHC/competitive/fluorescence; ≥ and ≤ were set here for values at or beyond the usual limits of such assays
HLA-B*18:01 [10] = test: IEDB peptide-MHC binding, purified MHC/direct/fluorescence; filed as Kd, often an IC50 or EC50 that approximates it; ≥ and ≤ were set here for values at or beyond the usual limits of such assays; details: source organism: Yellow fever virus 1899/81
HLA-B*08:02 = test: as above
HLA-A*68:02 = test: as above; details: source organism: Orthohantavirus tulaense
HLA-A*24:03 = test: as above; details: source organism: Orthohantavirus tulaense
HLA-A*02:16 = test: as above; details: source organism: Orthohantavirus tulaense
HLA-B*46:01 = test: IEDB peptide-MHC binding, purified MHC/competitive/fluorescence; filed as Kd, often an IC50 or EC50 that approximates it; ≥ and ≤ were set here for values at or beyond the usual limits of such assays; details: source organism: Orthohantavirus tulaense
HLA-A*03:01 [11] = test: as above; details: source organism: Orthohantavirus tulaense
HLA-B*27:03 = test: as above; details: source organism: Orthohantavirus tulaense
HLA-B*15:01 [12] = test: as above; details: source organism: Orthohantavirus tulaense
HLA-B*39:01 = test: as above; details: source organism: Orthohantavirus tulaense
HLA-B*57:01 = test: as above; details: source organism: Orthohantavirus tulaense
HLA-A*26:01 = test: as above; details: source organism: Orthohantavirus tulaense
HLA-A*69:01 [13] = test: as above; details: source organism: Orthohantavirus tulaense
HLA-B*18:01 [14] = test: as above; details: source organism: Orthohantavirus tulaense
HLA-B*08:01 [15] = test: IEDB peptide-MHC binding, purified MHC/direct/fluorescence; filed as Kd, often an IC50 or EC50 that approximates it; ≥ and ≤ were set here for values at or beyond the usual limits of such assays; details: source organism: Mycobacterium tuberculosis str. Haarlem
[16] = source organism: Mopeia Lassa virus reassortant 29
[17] = source organism: dengue virus type 3
[18] = source organism: Mycobacterium tuberculosis str. Haarlem
[19] = source organism: Vaccinia virus
[20] = source organism: Yellow fever virus 1899/81
[21] = source organism: Vaccinia virus Copenhagen
[22] = source organism: Orthohantavirus tulaense
[23] = source organism: Zaire ebolavirus

Sequence: RLKFSLSYK
- pKd (HLA-A*03:01 [1]): 7.32
- pKd (HLA-A*11:01): 7.22
- pKd (HLA-B*15:42; [16]): ≤ 5.30
- pKd (HLA-B*83:01; [16]): ≤ 5.30
- pKd (HLA-A*31:01; [16]): 8.14
- pKd (HLA-B*45:06; [16]): ≤ 5.30

Sequence: WISHRPVVL
- pIC50 (HLA-B*08:01 [2]; source organism: Variola virus): 4.59
- pIC50 (HLA-A*02:01; source organism: Variola virus): 5.96
- pIC50 (HLA-B*07:02 [3]; source organism: Variola virus): 5.15
- pIC50 (HLA-A*24:02; source organism: Variola virus): 4.67

Sequence: TLYAVATTV
- pKd (HLA-A*02:19; [17]): 8.00
- pKd (HLA-A*02:11; [17]): ≥ 9.00
- pKd (HLA-A*02:12; [17]): 8.30
- pKd (HLA-A*02:17): 5.79
- pKd (HLA-A*02:03 [4]): 7.89

Sequence: SLNLAKEAV
- pKd (HLA-B*15:01 [5]): ≤ 4.47
- pKd (HLA-A*02:11; source organism: Campylobacter jejuni subsp. jejuni HB93-13): 8.52
- pKd (HLA-A*69:01 [6]; source organism: Campylobacter jejuni): 5.36

Sequence: ALFPIIWAL
- pKd (HLA-A*02:03 [7]; [18]): 8.52
- pKd (HLA-A*02:11; [18]): ≥ 9.00
- pKd (HLA-A*02:12; [18]): 8.40
- pKd (HLA-A*69:01 [6]; source organism: Mycobacterium tuberculosis): 6.27

Sequence: LPAGSPVAV
- pKd (HLA-B*07:02 [8]): 6.62
- pKd (HLA-B*51:01; source organism: Mycobacterium tuberculosis H37Rv): 6.34
- pKd (HLA-B*35:01): 8.57

Sequence: GMLRFANPL
- pIC50 (HLA-B*08:01 [2]; [19]): 4.93
- pIC50 (HLA-A*02:01; [19]): 6.19
- pIC50 (HLA-B*15:01 [9]; [19]): 5.77
- pIC50 (HLA-B*07:02 [3]; [19]): 5.27
- pIC50 (HLA-A*24:02; [19]): 5.09

Sequence: HEVNGTWMI
- pKd (HLA-B*18:01 [10]): 8.05
- pKd (HLA-B*15:42; [20]): ≤ 5.30
- pKd (HLA-B*83:01; [20]): ≤ 5.30
- pKd (HLA-B*45:06; [20]): ≤ 5.30

Sequence: ILKERKQAL
- pKd (HLA-B*08:02; source organism: Listeria monocytogenes serotype 4b str. H7858): 5.79

Sequence: INKLNGAMV
- pIC50 (HLA-B*07:02 [3]; [21]): ≤ 4.13

Sequence: YLFGGFSTL
- pIC50 (HLA-B*08:01 [2]; source organism: Variola virus): ≤ 3.56
- pIC50 (HLA-B*15:01 [9]; source organism: Variola virus): 5.48
- pIC50 (HLA-B*07:02 [3]; source organism: Variola virus): 5.12

Sequence: ILMARYMSK
- pKd (HLA-A*02:03 [7]; [22]): ≤ 4.70
- pKd (HLA-A*02:19; [22]): ≤ 4.70
- pKd (HLA-A*68:02): ≤ 4.70
- pKd (HLA-A*24:03): ≤ 4.70
- pKd (HLA-A*02:16): ≤ 4.70
- pKd (HLA-A*02:11; [22]): ≤ 4.70
- pKd (HLA-A*02:12; [22]): ≤ 4.70
- pKd (HLA-B*46:01): ≤ 4.70
- pKd (HLA-B*15:42; [22]): ≤ 5.30
- pKd (HLA-B*83:01; [22]): ≤ 5.30
- pKd (HLA-B*51:01; [22]): ≤ 4.70
- pKd (HLA-A*03:01 [11]): 7.20
- pKd (HLA-B*27:03): ≤ 4.70
- pKd (HLA-B*15:01 [12]): ≤ 4.70
- pKd (HLA-B*39:01): ≤ 4.70
- pKd (HLA-B*57:01): ≤ 4.70
- pKd (HLA-A*26:01): ≤ 4.70
- pKd (HLA-A*69:01 [13]): ≤ 4.70
- pKd (HLA-B*18:01 [14]): ≤ 4.70
- pKd (HLA-A*31:01; [22]): 7.82
- pKd (HLA-B*45:06; [22]): ≤ 5.30

Sequence: TLRRRFAVA
- pKd (HLA-B*08:01 [15]): 7.92
- pKd (HLA-B*08:02; [18]): ≤ 4.70

Sequence: QLREAATEA
- pIC50 (HLA-B*08:01 [2]; [23]): ≤ 3.72
- pIC50 (HLA-A*02:01; [23]): 4.70
- pIC50 (HLA-B*15:01 [9]; [23]): 4.21
- pIC50 (HLA-B*07:02 [3]; [23]): 4.55

Sequence: ILRSIEGEL
- pIC50 (HLA-B*08:01 [2]; [21]): ≤ 3.28
- pIC50 (HLA-B*15:01 [9]; [21]): 4.40
- pIC50 (HLA-B*07:02 [3]; [21]): 4.47

Sequence: TNQLRSVGL
- pIC50 (HLA-B*08:01 [2]; [23]): 4.48
- pIC50 (HLA-B*07:02 [3]; [23]): 4.19
